Legend:
[1] = biological target: T1, (GA)15: H-CHHHHHH(GA)15-OH; assay: indirect ELISA, uncoupled peptide coated, antibody titrated [also D00013 FIG. 3E]
T1 construct: synthetic, not coupled to BSA; also called poly-GA DPR protein peptide
T1 peptide: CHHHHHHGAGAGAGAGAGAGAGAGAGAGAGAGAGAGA
Protocol: In brief, dipeptide repeat proteins were synthesized and purified by Schafer-N(Copenhagen, Denmark): (GA)₁₅: H-CHHHHHH(GA)₁₅-OH; (GP)₁₅: H-C(GP)₁₅-OH; (GR)₁₅: H-C(GR)₁₅-OH; (PA)₁₅: H-C(PA)₁₅-OH; (PR)₁₅: H—C(PR)₁₅-OH. DPR protein peptides were then conjugated via a bifunctional linker (SMCC) to bovine serum albumin (BSA). 96-well microplates (Corning Incorporated, Corning, USA) were coated with BSA-coupled or -uncoupled dipeptide repeat protein peptides at a concentration of either 5 μg/ml or 20 μg/ml in coating buffer (15 mM Na₂CO₃, 35 mM NaHCO₃, pH 9.42). Non-specific binding sites were blocked for 1 h at room temperature with PBS/0.1% Tween®-20 containing 2% BSA (Sigma-Aldrich, Buchs, Switzerland). Primary antibodies were diluted to the indicated concentrations and incubated 1 h at room temperature, followed by incubation with a donkey anti-human IgG Fcγ-specific antibody conjugated with HRP (Jackson ImmunoResearch Laboratories, Inc., West Grove, USA). Binding was determined by measurement of HRP activity in a standard colorimetric assay. EC₅₀ values were estimated by non-linear regression using GraphPad Prism software (San Diego, USA).

[2] = biological target: T2, PR6: H-(PR)6HHHHHH-NH2; assay: indirect ELISA, coated His-tagged peptide
T2 peptide: H-PRPRPRPRPRPRHHHHHH-NH2
Outline: (§1)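 Antibodies at graded concentrations bound for 1 h at room temperature to wells carrying 50 μg/ml His-tagged repeat peptide (pH 9.42 carbonate coating, 2% BSA block). Bound IgG read colorimetrically via HRP anti-human Fcγ; EC₅₀ estimated by non-linear regression.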

[3] = biological target: T3, PR20: H-(PR)20HHHHHH-NH2 (C-terminal amide); assay: indirect ELISA, coated His-tagged peptide
T3 peptide: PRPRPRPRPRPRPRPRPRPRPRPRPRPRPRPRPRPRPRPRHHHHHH
Outline: as §1

[4] = biological target: T4, GP10: H-(GP)10HHHHHH-NH2 (C-terminal amide); assay: indirect ELISA, coated His-tagged peptide
T4 peptide: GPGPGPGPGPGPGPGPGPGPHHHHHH
Outline: as §1

[5] = biological target: T5, GR5: H-(GR)5HHHHHH-NH2; assay: indirect ELISA, coated His-tagged peptide
T5 peptide: H-GRGRGRGRGRHHHHHH-NH2
Outline: as §1

[6] = biological target: T6, GR3: H-(GR)3HHHHHH-NH2; assay: indirect ELISA, coated His-tagged peptide
T6 peptide: H-GRGRGRHHHHHH-NH2
Outline: as §1

[7] = biological target: T7, GR6: H-(GR)6HHHHHH-NH2; assay: indirect ELISA, coated His-tagged peptide
T7 peptide: H-GRGRGRGRGRGRHHHHHH-NH2
Outline: as §1

[8] = biological target: T8, GR10: H-(GR)10HHHHHH-NH2 (C-terminal amide); assay: indirect ELISA, coated His-tagged peptide
T8 peptide: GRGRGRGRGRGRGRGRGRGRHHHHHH
Outline: as §1

[9] = biological target: T9, GR4: H-(GR)4HHHHHH-NH2; assay: indirect ELISA, coated His-tagged peptide
T9 peptide: H-GRGRGRGRHHHHHH-NH2
Outline: as §1

[10] = biological target: T10, GR20: H-(GR)20HHHHHH-NH2 (C-terminal amide); assay: indirect ELISA, coated His-tagged peptide
T10 peptide: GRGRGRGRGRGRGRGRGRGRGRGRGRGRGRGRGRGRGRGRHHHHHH
Outline: as §1

[11] = biological target: T11, PA10: H-(PA)10HHHHHH-NH2 (C-terminal amide); assay: indirect ELISA, coated His-tagged peptide
T11 peptide: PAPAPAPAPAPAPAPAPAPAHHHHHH
Outline: as §1

[12] = biological target: T12, PA20: H-(PA)20HHHHHH-NH2 (C-terminal amide); assay: indirect ELISA, coated His-tagged peptide
T12 peptide: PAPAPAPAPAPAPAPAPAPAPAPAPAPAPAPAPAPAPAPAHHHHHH
Outline: as §1

[13] = biological target: T13, PA5: H-(PA)5HHHHHH-NH2; assay: indirect ELISA, coated His-tagged peptide
T13 peptide: H-PAPAPAPAPAHHHHHH-NH2
Outline: as §1

[14] = biological target: T14, PA6: H-(PA)6HHHHHH-NH2; assay: indirect ELISA, coated His-tagged peptide
T14 peptide: H-PAPAPAPAPAPAHHHHHH-NH2
Outline: as §1

B1: NI-308.45C2 (antibody, V domains shown)
VH: QLQLQESGPGLVKPSQILSLTCAISGDSVFSNSAAWNWIRQSPSRGLEWLGRTYYRSKWDNDYAPSVKSRISINPDTSKNQFSLQLNSVTPEDTAVYYCAREVAYCGGDCYSVSFDYWGQGTLVTVSS
VL: not shown
notes: Recombinant complete human IgG1, kappa
In the case of B1, the EC50 [1] is reported as 1.1 nM.

B2: NI-308.24E11 (antibody, V domains shown)
VH: QVQLQESGPGLVKPSETLSLTCTVSTTSLRSYFWSWIRQPPGKGLEWIGYVYYSGSTIYNPSLKNRVTISIDTSKNQFSLNLRSVTAADTAMYFCARGVPAETDARDFPPYYFDHWGQGTLVTVSS
VL: CDIQLTQSPSSLSASVGNRITFTCQASQDIRYYLNWYQQKPGKAPKLLIYDVSNLDTGVPPRFSGSGSGTNFTFTISSLQPEDIAVYYCQQYEGLPVTFGGGTKVEIK
notes: as for B1
B2 gave an EC50 [2] greater than 200 nM and an EC50 [3] of 11.3 nM.

B3: NI-308.46E9 (antibody, V domains shown)
VH: QVQLQESGPGLVKPSETLSLTCTVSGASISGSTYYWGWIRQPPGKGLEYIGRIYYSGSTYYNPSLKSRATISVDTSKNQLSLTLSSVTAADTAVYYCVRPFYAGSGNSPFDYWGQGTLVTVSS
VL: CEIVLTQSPATVSVSPGERATLSCRASQSVSTNLAWYQQKPGQPPRLLIYGASTRATGIPARFSGSGSGAEFTLTISSLQSEDFVVYYCQQYNNWPPAFGGGTKVEIK
notes: as for B1
B3 showed an EC50 [4] of 63.3 nM.

B4: NI-308.6B11 (antibody, V domains shown)
VH: EVQLVQSGAEVKRPGASVKVSCKVSGYTLTELSMHWVRQAPGKGLEWMGGFDPEDGETVYAQKFQGRVTMTEDTSTDTAYMELSSLRSEDTALYHCATYGSSWHWNEGNEGSYYFDYWGQGTLVTVSS
VL: CDIQMTQSPSSLSASVGDRVTITCQASQDISIYLNWYQQKPGKAPKLLIYDASNLETGVPSRFSGSGSGTDFTFTISGLQPEDVARYYCQQYDDLPITFGQGTRLEIK
notes: as for B1
Work on B4 yielded an EC50 [5] of 0.47 nM, an EC50 [6] of 14.3 nM and an EC50 [7] of 0.33 nM. The EC50 [8] was 1.3 nM, the EC50 [9] was 13.2 nM and the EC50 [10] was 0.25 nM.

B5: NI-308.4M1 (antibody, V domains shown)
VH: EVQLVETGGGVVQPGGSLRLSCEASGFTIGTYAMHWVRQFPGKGLDWVAVISFDGTTEYYTDAVKGRFTISRDNAKNTLYLQMNYLRGDDTAIYFCARDFTSSGETGSWTQVPDLWGQGTLVTVSS
VL: CEIVMTQSPATLSLSPGERATLSCRASQSVTKYLAWYQQKPGQAPRLLIYDVSYRAAGTPARFSGSGSGTDFTLTISSLEPEDFAVYYCHQRSSWPPVTFGGGTKVEIK
notes: as for B1
B5 showed an EC50 [11] of 0.06 nM, an EC50 [12] of 0.06 nM and an EC50 [13] of 26.9 nM. It also gave an EC50 [14] of 4.3 nM.

Reference: US20200010567A1 (NEURIMMUNE, published 2020)
